From doi:10.1101/2024.12.10.627789

Target: CAM1
Assay: ITC

CBD peptide of eEF2K
Kd: 0.255 µM
